Assay results taken from the supplement of paper PMC11136658.

System: peptide library, one residue held at a place counted from the Y acceptor
Experiment: relative phosphorylation of the sub-library (ratio to the mean residue at this position); higher = residue favoured
Method in brief: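 Every value reflects phosphorylation relative to the mean randomized residue. The sum of the 18 randomized residues, or 16 in the Ser/Thr-free library, served to normalize intensities at each position, which were then multiplied by that number. Intensities came from phosphorimaging with ImageQuant of biotinylated Tyr-centred peptides captured on streptavidin membranes after 90 min with purified recombinant kinases and 50 μM ATP plus γ-32P-ATP.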

Sequence of SRMS, construct: aa221-486, human (Q9H3Y6 221-486, looked up): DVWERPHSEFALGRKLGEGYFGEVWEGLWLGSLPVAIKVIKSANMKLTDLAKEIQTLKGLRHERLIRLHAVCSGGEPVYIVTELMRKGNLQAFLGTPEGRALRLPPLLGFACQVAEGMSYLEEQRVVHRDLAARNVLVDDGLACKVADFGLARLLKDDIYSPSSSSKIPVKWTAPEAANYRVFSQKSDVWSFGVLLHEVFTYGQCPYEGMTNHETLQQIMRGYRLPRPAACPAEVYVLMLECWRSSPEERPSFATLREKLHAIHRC

SRMS, construct: aa221-486, human (from UniProt Q9H3Y6)
relative phosphorylation
Details | at +1 | at +2 | at +3 | at +4 | at +5 | at -1 | at -2 | at -3 | at -4 | at -5
A fixed | 1.61 | 0.852 | 0.745 | 0.969 | 1.04 | 0.678 | 1.08 | 0.923 | 1.13 | 1.02
D fixed | 1.27 | 1.37 | 0.647 | 1.09 | 1.1 | 0.76 | 1.3 | 1.33 | 1.22 | 1.14
E fixed | 2.77 | 1.87 | 0.602 | 1.41 | 1.23 | 0.764 | 1.61 | 1.88 | 1.18 | 1.07
F fixed | 0.567 | 0.976 | 1.42 | 0.922 | 0.996 | 1.49 | 0.718 | 1.05 | 1.1 | 1.01
G fixed | 0.832 | 0.583 | 0.964 | 1.15 | 1.18 | 0.296 | 1.01 | 1.07 | 1.08 | 1.18
H fixed | 0.66 | 0.783 | 0.837 | 1.11 | 0.897 | 1.13 | 0.924 | 0.961 | 0.842 | 0.87
I fixed | 1.26 | 1.07 | 2.19 | 0.812 | 0.864 | 2.65 | 0.963 | 0.778 | 0.816 | 0.921
K fixed | 0.273 | 0.451 | 0.291 | 0.736 | 0.714 | 0.317 | 0.605 | 0.62 | 0.767 | 0.91
L fixed | 0.788 | 1.07 | 1.56 | 0.795 | 0.92 | 1.98 | 0.921 | 0.839 | 1.03 | 0.919
M fixed | 1.12 | 1.01 | 1.31 | 1.13 | 1.02 | 1.2 | 0.837 | 1.03 | 0.991 | 0.995
N fixed | 0.539 | 1.17 | 0.534 | 0.818 | 0.958 | 0.564 | 1.08 | 1.26 | 0.945 | 1.08
P fixed | 0.16 | 0.742 | 1 | 1.27 | 1.59 | 0.546 | 1.22 | 0.923 | 1.23 | 1.21
Q fixed | 1.2 | 0.857 | 0.847 | 1.05 | 0.891 | 0.591 | 1.05 | 0.819 | 1.12 | 1.01
R fixed | 0.361 | 0.635 | 0.397 | 0.871 | 0.768 | 0.351 | 0.576 | 0.671 | 0.867 | 0.946
S fixed | 1.12 | 1.07 | 0.784 | 0.971 | 1 | 0.5 | 1.12 | 1.04 | 0.882 | 0.971
T fixed | 1.12 | 1.26 | 1.01 | 0.923 | 1 | 1.26 | 0.998 | 1.01 | 0.754 | 0.879
V fixed | 1.35 | 1.07 | 1.6 | 0.884 | 0.896 | 1.83 | 1.13 | 0.792 | 0.849 | 0.903
W fixed | 1.01 | 1.16 | 1.27 | 1.09 | 0.942 | 1.1 | 0.856 | 0.994 | 1.2 | 0.962
pThr fixed | 2.26 | 2.43 | 0.579 | 1.07 | 0.972 | 1.2 | 1.19 | 1.02 | 0.958 | 1.03
pTyr fixed | 2.12 | 3.06 | 1.02 | 1.47 | 1.07 | 1.38 | 1.44 | 1.51 | 1.27 | 1.21

SYK, construct: Full length, human (from UniProt P43405)
relative phosphorylation
Details | at +1 | at +2 | at +3 | at +4 | at +5 | at -1 | at -2 | at -3 | at -4 | at -5
A fixed | 0.893 | 0.772 | 0.955 | 0.937 | 0.988 | 0.68 | 0.908 | 0.734 | 1.07 | 0.954
D fixed | 1.01 | 1.13 | 0.812 | 1.23 | 1.14 | 4.23 | 2.04 | 2.29 | 1.89 | 1.54
E fixed | 4.05 | 1.74 | 0.941 | 1.39 | 1.2 | 3.04 | 2.21 | 2.61 | 1.96 | 1.49
F fixed | 0.838 | 1.27 | 1.12 | 1.09 | 1 | 0.665 | 0.675 | 0.914 | 1.07 | 1.02
G fixed | 0.363 | 0.78 | 1.2 | 0.965 | 0.96 | 0.379 | 1.04 | 0.896 | 0.964 | 1.03
H fixed | 0.665 | 0.752 | 0.813 | 0.988 | 0.919 | 0.673 | 0.863 | 0.873 | 0.769 | 0.933
I fixed | 1.22 | 1.02 | 1.51 | 0.751 | 0.826 | 1.17 | 0.766 | 0.689 | 0.773 | 0.949
K fixed | 0.25 | 0.588 | 0.584 | 0.875 | 0.916 | 0.204 | 0.46 | 0.459 | 0.593 | 0.681
L fixed | 0.86 | 0.929 | 1.02 | 0.802 | 0.966 | 0.912 | 0.837 | 0.805 | 0.99 | 1.04
M fixed | 0.907 | 0.965 | 0.924 | 1.1 | 0.944 | 0.725 | 0.728 | 0.758 | 0.818 | 0.944
N fixed | 0.505 | 1.11 | 0.771 | 0.896 | 1.03 | 1.02 | 1.21 | 1.26 | 0.868 | 1.13
P fixed | 0.288 | 0.669 | 1.67 | 1.08 | 1.27 | 0.672 | 1.03 | 0.868 | 1.08 | 0.966
Q fixed | 1.1 | 0.972 | 0.761 | 1.11 | 0.983 | 0.674 | 1.13 | 0.864 | 1.11 | 1.08
R fixed | 0.302 | 0.74 | 0.619 | 0.856 | 0.926 | 0.219 | 0.535 | 0.523 | 0.641 | 0.716
S fixed | 1.1 | 1.01 | 0.892 | 0.97 | 0.965 | 0.587 | 1.1 | 0.915 | 0.758 | 0.895
T fixed | 1.23 | 1.02 | 0.907 | 0.932 | 1.1 | 0.779 | 0.832 | 0.885 | 0.651 | 0.725
V fixed | 1.47 | 0.978 | 1.4 | 0.874 | 0.89 | 0.935 | 0.857 | 0.703 | 0.811 | 0.772
W fixed | 0.951 | 1.56 | 1.1 | 1.14 | 0.961 | 0.44 | 0.771 | 0.948 | 1.19 | 1.14
pThr fixed | 3.24 | 2.33 | 0.946 | 1.54 | 1.38 | 6.21 | 3.86 | 2.93 | 2.36 | 1.85
pTyr fixed | 6.41 | 3.62 | 1.53 | 1.73 | 1.32 | 4.49 | 2.56 | 3.83 | 2.99 | 2.2
